According to patent US12679878B2, “CRF2 receptor agonists and their use in therapy” (SANOFI, priority 2020, dated 2026):
Starred links: 1 amine or outer side, 2 acyl side, 3 side chain; linkers in the order of their positions; H or OH if unused. Non-standard residues stand in square brackets, D forms with d. Groups on a side chain read outwards from the residue. No end group written: not given here. *: point of attachment. C18 diacid = O=C(O)CCCCCCCCCCCCCCCCC(=O)*; γGlu = O=C(O)[C@H](CCC(=O)[*:2])N[*:1]; AEEA = NCCOCCOCC(=O)O; Aib = CC(C)(N)C(=O)O

target: T1, CRF1R receptor (anti-target) (UniProt P34998 24-415, limits assumed); assay: cell-based or functional assay
T1 sequence (looked up): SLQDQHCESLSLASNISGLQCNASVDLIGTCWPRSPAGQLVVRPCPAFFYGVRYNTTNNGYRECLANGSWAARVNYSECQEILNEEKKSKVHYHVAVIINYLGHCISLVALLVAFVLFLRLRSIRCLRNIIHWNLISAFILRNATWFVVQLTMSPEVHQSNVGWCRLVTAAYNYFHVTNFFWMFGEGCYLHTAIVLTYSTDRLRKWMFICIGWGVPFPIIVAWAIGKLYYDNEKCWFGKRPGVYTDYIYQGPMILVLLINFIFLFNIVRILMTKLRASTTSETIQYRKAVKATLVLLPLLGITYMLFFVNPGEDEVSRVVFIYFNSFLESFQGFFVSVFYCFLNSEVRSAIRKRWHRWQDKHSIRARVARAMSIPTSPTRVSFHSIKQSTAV

Binder	EC50 [nM] 0% HSA (cAMP, HTRF) [nM]	Emax (%) (100% = Sauvagine at 100 nM)
IVLSLDVPIKLK([AEEA-AEEA-γGlu-C18 diacid])QILLKQERQK[Aib]QRQKAETNKQILAQV-NH2 (N-terminus assumed; SMILES CC[C@H](C)[C@H](N)C(=O)N[C@H](C(=O)N[C@@H](CC(C)C)C(=O)N[C@@H](CO)C(=O)N[C@@H](CC(C)C)C(=O)N[C@@H](CC(=O)O)C(=O)N[C@H](C(=O)N1CCC[C@H]1C(=O)N[C@H](C(=O)N[C@@H](CCCCN)C(=O)N[C@@H](CC(C)C)C(=O)N[C@@H](CCCCNC(=O)COCCOCCNC(=O)COCCOCCNC(=O)CC[C@H](NC(=O)CCCCCCCCCCCCCCCCC(=O)O)C(=O)O)C(=O)N[C@@H](CCC(N)=O)C(=O)N[C@H](C(=O)N[C@@H](CC(C)C)C(=O)N[C@@H](CC(C)C)C(=O)N[C@@H](CCCCN)C(=O)N[C@@H](CCC(N)=O)C(=O)N[C@@H](CCC(=O)O)C(=O)N[C@@H](CCCNC(=N)N)C(=O)N[C@@H](CCC(N)=O)C(=O)N[C@@H](CCCCN)C(=O)NC(C)(C)C(=O)N[C@@H](CCC(N)=O)C(=O)N[C@@H](CCCNC(=N)N)C(=O)N[C@@H](CCC(N)=O)C(=O)N[C@@H](CCCCN)C(=O)N[C@@H](C)C(=O)N[C@@H](CCC(=O)O)C(=O)N[C@H](C(=O)N[C@@H](CC(N)=O)C(=O)N[C@@H](CCCCN)C(=O)N[C@@H](CCC(N)=O)C(=O)N[C@H](C(=O)N[C@@H](CC(C)C)C(=O)N[C@@H](C)C(=O)N[C@@H](CCC(N)=O)C(=O)N[C@H](C(N)=O)C(C)C)[C@@H](C)CC)[C@@H](C)O)[C@@H](C)CC)[C@@H](C)CC)C(C)C)C(C)C) [peptide of SEQ ID NO: 108]	> 100	-2
IVLSLDVPIKLK([AEEA-AEEA-γGlu-C18 diacid])QILLKQERQK[Aib]QREKAETNKQILAQV-NH2 (N-terminus assumed; SMILES CC[C@H](C)[C@H](N)C(=O)N[C@H](C(=O)N[C@@H](CC(C)C)C(=O)N[C@@H](CO)C(=O)N[C@@H](CC(C)C)C(=O)N[C@@H](CC(=O)O)C(=O)N[C@H](C(=O)N1CCC[C@H]1C(=O)N[C@H](C(=O)N[C@@H](CCCCN)C(=O)N[C@@H](CC(C)C)C(=O)N[C@@H](CCCCNC(=O)COCCOCCNC(=O)COCCOCCNC(=O)CC[C@H](NC(=O)CCCCCCCCCCCCCCCCC(=O)O)C(=O)O)C(=O)N[C@@H](CCC(N)=O)C(=O)N[C@H](C(=O)N[C@@H](CC(C)C)C(=O)N[C@@H](CC(C)C)C(=O)N[C@@H](CCCCN)C(=O)N[C@@H](CCC(N)=O)C(=O)N[C@@H](CCC(=O)O)C(=O)N[C@@H](CCCNC(=N)N)C(=O)N[C@@H](CCC(N)=O)C(=O)N[C@@H](CCCCN)C(=O)NC(C)(C)C(=O)N[C@@H](CCC(N)=O)C(=O)N[C@@H](CCCNC(=N)N)C(=O)N[C@@H](CCC(=O)O)C(=O)N[C@@H](CCCCN)C(=O)N[C@@H](C)C(=O)N[C@@H](CCC(=O)O)C(=O)N[C@H](C(=O)N[C@@H](CC(N)=O)C(=O)N[C@@H](CCCCN)C(=O)N[C@@H](CCC(N)=O)C(=O)N[C@H](C(=O)N[C@@H](CC(C)C)C(=O)N[C@@H](C)C(=O)N[C@@H](CCC(N)=O)C(=O)N[C@H](C(N)=O)C(C)C)[C@@H](C)CC)[C@@H](C)O)[C@@H](C)CC)[C@@H](C)CC)C(C)C)C(C)C) [peptide of SEQ ID NO: 109]	> 100	1.1
IVLSLDVPIKLK([AEEA-AEEA-γGlu-C18 diacid])QILLKQERQK[Aib]QRQQAETNKQILAQV-NH2 (N-terminus assumed; SMILES CC[C@H](C)[C@H](N)C(=O)N[C@H](C(=O)N[C@@H](CC(C)C)C(=O)N[C@@H](CO)C(=O)N[C@@H](CC(C)C)C(=O)N[C@@H](CC(=O)O)C(=O)N[C@H](C(=O)N1CCC[C@H]1C(=O)N[C@H](C(=O)N[C@@H](CCCCN)C(=O)N[C@@H](CC(C)C)C(=O)N[C@@H](CCCCNC(=O)COCCOCCNC(=O)COCCOCCNC(=O)CC[C@H](NC(=O)CCCCCCCCCCCCCCCCC(=O)O)C(=O)O)C(=O)N[C@@H](CCC(N)=O)C(=O)N[C@H](C(=O)N[C@@H](CC(C)C)C(=O)N[C@@H](CC(C)C)C(=O)N[C@@H](CCCCN)C(=O)N[C@@H](CCC(N)=O)C(=O)N[C@@H](CCC(=O)O)C(=O)N[C@@H](CCCNC(=N)N)C(=O)N[C@@H](CCC(N)=O)C(=O)N[C@@H](CCCCN)C(=O)NC(C)(C)C(=O)N[C@@H](CCC(N)=O)C(=O)N[C@@H](CCCNC(=N)N)C(=O)N[C@@H](CCC(N)=O)C(=O)N[C@@H](CCC(N)=O)C(=O)N[C@@H](C)C(=O)N[C@@H](CCC(=O)O)C(=O)N[C@H](C(=O)N[C@@H](CC(N)=O)C(=O)N[C@@H](CCCCN)C(=O)N[C@@H](CCC(N)=O)C(=O)N[C@H](C(=O)N[C@@H](CC(C)C)C(=O)N[C@@H](C)C(=O)N[C@@H](CCC(N)=O)C(=O)N[C@H](C(N)=O)C(C)C)[C@@H](C)CC)[C@@H](C)O)[C@@H](C)CC)[C@@H](C)CC)C(C)C)C(C)C) [peptide of SEQ ID NO: 110]	> 100	5.4
IVLSLDVPIKLK([AEEA-AEEA-γGlu-C18 diacid])QILLKQERQK[Aib]QREKAEKNKQILAQV-NH2 (N-terminus assumed; SMILES CC[C@H](C)[C@H](N)C(=O)N[C@H](C(=O)N[C@@H](CC(C)C)C(=O)N[C@@H](CO)C(=O)N[C@@H](CC(C)C)C(=O)N[C@@H](CC(=O)O)C(=O)N[C@H](C(=O)N1CCC[C@H]1C(=O)N[C@H](C(=O)N[C@@H](CCCCN)C(=O)N[C@@H](CC(C)C)C(=O)N[C@@H](CCCCNC(=O)COCCOCCNC(=O)COCCOCCNC(=O)CC[C@H](NC(=O)CCCCCCCCCCCCCCCCC(=O)O)C(=O)O)C(=O)N[C@@H](CCC(N)=O)C(=O)N[C@H](C(=O)N[C@@H](CC(C)C)C(=O)N[C@@H](CC(C)C)C(=O)N[C@@H](CCCCN)C(=O)N[C@@H](CCC(N)=O)C(=O)N[C@@H](CCC(=O)O)C(=O)N[C@@H](CCCNC(=N)N)C(=O)N[C@@H](CCC(N)=O)C(=O)N[C@@H](CCCCN)C(=O)NC(C)(C)C(=O)N[C@@H](CCC(N)=O)C(=O)N[C@@H](CCCNC(=N)N)C(=O)N[C@@H](CCC(=O)O)C(=O)N[C@@H](CCCCN)C(=O)N[C@@H](C)C(=O)N[C@@H](CCC(=O)O)C(=O)N[C@@H](CCCCN)C(=O)N[C@@H](CC(N)=O)C(=O)N[C@@H](CCCCN)C(=O)N[C@@H](CCC(N)=O)C(=O)N[C@H](C(=O)N[C@@H](CC(C)C)C(=O)N[C@@H](C)C(=O)N[C@@H](CCC(N)=O)C(=O)N[C@H](C(N)=O)C(C)C)[C@@H](C)CC)[C@@H](C)CC)[C@@H](C)CC)C(C)C)C(C)C) [peptide of SEQ ID NO: 116]	> 100	0.8
IVLSLDVPIKLK([AEEA-AEEA-γGlu-C18 diacid])QILLKQERQK[Aib]QRQQAEKNKQILAQV-NH2 (N-terminus assumed; SMILES CC[C@H](C)[C@H](N)C(=O)N[C@H](C(=O)N[C@@H](CC(C)C)C(=O)N[C@@H](CO)C(=O)N[C@@H](CC(C)C)C(=O)N[C@@H](CC(=O)O)C(=O)N[C@H](C(=O)N1CCC[C@H]1C(=O)N[C@H](C(=O)N[C@@H](CCCCN)C(=O)N[C@@H](CC(C)C)C(=O)N[C@@H](CCCCNC(=O)COCCOCCNC(=O)COCCOCCNC(=O)CC[C@H](NC(=O)CCCCCCCCCCCCCCCCC(=O)O)C(=O)O)C(=O)N[C@@H](CCC(N)=O)C(=O)N[C@H](C(=O)N[C@@H](CC(C)C)C(=O)N[C@@H](CC(C)C)C(=O)N[C@@H](CCCCN)C(=O)N[C@@H](CCC(N)=O)C(=O)N[C@@H](CCC(=O)O)C(=O)N[C@@H](CCCNC(=N)N)C(=O)N[C@@H](CCC(N)=O)C(=O)N[C@@H](CCCCN)C(=O)NC(C)(C)C(=O)N[C@@H](CCC(N)=O)C(=O)N[C@@H](CCCNC(=N)N)C(=O)N[C@@H](CCC(N)=O)C(=O)N[C@@H](CCC(N)=O)C(=O)N[C@@H](C)C(=O)N[C@@H](CCC(=O)O)C(=O)N[C@@H](CCCCN)C(=O)N[C@@H](CC(N)=O)C(=O)N[C@@H](CCCCN)C(=O)N[C@@H](CCC(N)=O)C(=O)N[C@H](C(=O)N[C@@H](CC(C)C)C(=O)N[C@@H](C)C(=O)N[C@@H](CCC(N)=O)C(=O)N[C@H](C(N)=O)C(C)C)[C@@H](C)CC)[C@@H](C)CC)[C@@H](C)CC)C(C)C)C(C)C) [peptide of SEQ ID NO: 117]	> 100	-6
IVLSLD[dV]PIKLK([AEEA-AEEA-γGlu-C18 diacid])QILLKQERQK[Aib]QRQKAEKNKQILAQV-NH2 (N-terminus assumed; SMILES CC[C@H](C)[C@H](N)C(=O)N[C@H](C(=O)N[C@@H](CC(C)C)C(=O)N[C@@H](CO)C(=O)N[C@@H](CC(C)C)C(=O)N[C@@H](CC(=O)O)C(=O)N[C@@H](C(=O)N1CCC[C@H]1C(=O)N[C@H](C(=O)N[C@@H](CCCCN)C(=O)N[C@@H](CC(C)C)C(=O)N[C@@H](CCCCNC(=O)COCCOCCNC(=O)COCCOCCNC(=O)CC[C@H](NC(=O)CCCCCCCCCCCCCCCCC(=O)O)C(=O)O)C(=O)N[C@@H](CCC(N)=O)C(=O)N[C@H](C(=O)N[C@@H](CC(C)C)C(=O)N[C@@H](CC(C)C)C(=O)N[C@@H](CCCCN)C(=O)N[C@@H](CCC(N)=O)C(=O)N[C@@H](CCC(=O)O)C(=O)N[C@@H](CCCNC(=N)N)C(=O)N[C@@H](CCC(N)=O)C(=O)N[C@@H](CCCCN)C(=O)NC(C)(C)C(=O)N[C@@H](CCC(N)=O)C(=O)N[C@@H](CCCNC(=N)N)C(=O)N[C@@H](CCC(N)=O)C(=O)N[C@@H](CCCCN)C(=O)N[C@@H](C)C(=O)N[C@@H](CCC(=O)O)C(=O)N[C@@H](CCCCN)C(=O)N[C@@H](CC(N)=O)C(=O)N[C@@H](CCCCN)C(=O)N[C@@H](CCC(N)=O)C(=O)N[C@H](C(=O)N[C@@H](CC(C)C)C(=O)N[C@@H](C)C(=O)N[C@@H](CCC(N)=O)C(=O)N[C@H](C(N)=O)C(C)C)[C@@H](C)CC)[C@@H](C)CC)[C@@H](C)CC)C(C)C)C(C)C) [peptide of SEQ ID NO: 118]	> 100	1.5
